From US20220204580A1 (AstraZeneca / MedImmune, published 2022) come the findings set out here.

Numbered stars: 1 amine (or outer) side, 2 acyl side, 3 side chain; on linkers, the order of the positions; unused ones are H or OH. Bridge positions count the residues as written; N and C are the ends. Square brackets hold non-standard residues; d marks the D form. Side chains are listed from the residue outwards. Ends that are not written are not given here. * marks the point of attachment. C18 diacid = O=C(O)CCCCCCCCCCCCCCCCC(=O)*; γGlu = O=C(O)[C@H](CCC(=O)[*:2])N[*:1]; Aib = CC(C)(N)C(=O)O

The labels stand for the following.
T1: human amylin receptor (calcitonin receptor co-expressed with receptor activity modifying protein, RAMP3) (human, UniProt P30988 25-474; O60896 24-148)
T1 sequence (looked up) 1: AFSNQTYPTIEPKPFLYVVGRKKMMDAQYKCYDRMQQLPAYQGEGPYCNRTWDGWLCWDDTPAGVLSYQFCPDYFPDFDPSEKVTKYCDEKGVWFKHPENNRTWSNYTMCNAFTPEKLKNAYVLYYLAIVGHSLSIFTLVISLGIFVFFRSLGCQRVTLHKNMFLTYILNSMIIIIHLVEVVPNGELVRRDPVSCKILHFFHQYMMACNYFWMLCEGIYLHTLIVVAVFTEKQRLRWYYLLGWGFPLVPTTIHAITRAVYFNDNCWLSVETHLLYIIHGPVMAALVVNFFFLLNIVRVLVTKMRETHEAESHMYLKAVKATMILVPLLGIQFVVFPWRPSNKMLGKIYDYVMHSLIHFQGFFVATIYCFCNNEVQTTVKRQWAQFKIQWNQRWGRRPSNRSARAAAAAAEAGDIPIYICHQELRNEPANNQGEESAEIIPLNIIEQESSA
T1 sequence (looked up) 2: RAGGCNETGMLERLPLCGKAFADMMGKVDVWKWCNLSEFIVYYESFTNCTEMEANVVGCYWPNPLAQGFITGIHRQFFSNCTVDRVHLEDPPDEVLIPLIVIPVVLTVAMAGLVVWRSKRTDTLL

T2: human calcitonin receptor (human, UniProt P30988 25-474)
T2 sequence (looked up): T1 sequence (looked up) 1

B1: Peptide 67 (SEQ ID NO: 67) (peptide)
peptide: K([γGlu-γGlu-C18 diacid])CNTATCATQRLANFLVHSS[Aib]NFGPILPPTRVGSNTY-NH2
modifications: disulfide 2-7; N-terminus assumed
SMILES: CC[C@H](C)[C@H](NC(=O)[C@@H]1CCCN1C(=O)CNC(=O)[C@H](Cc1ccccc1)NC(=O)[C@H](CC(N)=O)NC(=O)C(C)(C)NC(=O)[C@H](CO)NC(=O)[C@H](CO)NC(=O)[C@H](Cc1c[nH]cn1)NC(=O)[C@@H](NC(=O)[C@H](CC(C)C)NC(=O)[C@H](Cc1ccccc1)NC(=O)[C@H](CC(N)=O)NC(=O)[C@H](C)NC(=O)[C@H](CC(C)C)NC(=O)[C@H](CCCNC(=N)N)NC(=O)[C@H](CCC(N)=O)NC(=O)[C@@H](NC(=O)[C@H](C)NC(=O)[C@@H]1CSSC[C@H](NC(=O)[C@@H](N)CCCCNC(=O)CC[C@H](NC(=O)CC[C@H](NC(=O)CCCCCCCCCCCCCCCCC(=O)O)C(=O)O)C(=O)O)C(=O)N[C@@H](CC(N)=O)C(=O)N[C@@H]([C@@H](C)O)C(=O)N[C@@H](C)C(=O)N[C@@H]([C@@H](C)O)C(=O)N1)[C@@H](C)O)C(C)C)C(=O)N[C@@H](CC(C)C)C(=O)N1CCC[C@H]1C(=O)N1CCC[C@H]1C(=O)N[C@H](C(=O)N[C@@H](CCCNC(=N)N)C(=O)N[C@H](C(=O)NCC(=O)N[C@@H](CO)C(=O)N[C@@H](CC(N)=O)C(=O)N[C@H](C(=O)N[C@@H](Cc1ccc(O)cc1)C(N)=O)[C@@H](C)O)C(C)C)[C@@H](C)O
B2: Peptide 63 (SEQ ID NO: 63) (peptide)
peptide: K([γGlu-C18 diacid])CNTATCATQRLANFLVHSS[Aib]NFGPILPPTRVGSNTY-NH2
modifications: disulfide 2-7; N-terminus assumed
SMILES: CC[C@H](C)[C@H](NC(=O)[C@@H]1CCCN1C(=O)CNC(=O)[C@H](Cc1ccccc1)NC(=O)[C@H](CC(N)=O)NC(=O)C(C)(C)NC(=O)[C@H](CO)NC(=O)[C@H](CO)NC(=O)[C@H](Cc1c[nH]cn1)NC(=O)[C@@H](NC(=O)[C@H](CC(C)C)NC(=O)[C@H](Cc1ccccc1)NC(=O)[C@H](CC(N)=O)NC(=O)[C@H](C)NC(=O)[C@H](CC(C)C)NC(=O)[C@H](CCCNC(=N)N)NC(=O)[C@H](CCC(N)=O)NC(=O)[C@@H](NC(=O)[C@H](C)NC(=O)[C@@H]1CSSC[C@H](NC(=O)[C@@H](N)CCCCNC(=O)CC[C@H](NC(=O)CCCCCCCCCCCCCCCCC(=O)O)C(=O)O)C(=O)N[C@@H](CC(N)=O)C(=O)N[C@@H]([C@@H](C)O)C(=O)N[C@@H](C)C(=O)N[C@@H]([C@@H](C)O)C(=O)N1)[C@@H](C)O)C(C)C)C(=O)N[C@@H](CC(C)C)C(=O)N1CCC[C@H]1C(=O)N1CCC[C@H]1C(=O)N[C@H](C(=O)N[C@@H](CCCNC(=N)N)C(=O)N[C@H](C(=O)NCC(=O)N[C@@H](CO)C(=O)N[C@@H](CC(N)=O)C(=O)N[C@H](C(=O)N[C@@H](Cc1ccc(O)cc1)C(N)=O)[C@@H](C)O)C(C)C)[C@@H](C)O
B3: Peptide 64 (SEQ ID NO: 64) (peptide)
peptide: K([γGlu-C18 diacid])CNTATCATQRLANFLVHSS[Aib]NFGPILPPTNVGSRTY-NH2
modifications: disulfide 2-7; N-terminus assumed
SMILES: CC[C@H](C)[C@H](NC(=O)[C@@H]1CCCN1C(=O)CNC(=O)[C@H](Cc1ccccc1)NC(=O)[C@H](CC(N)=O)NC(=O)C(C)(C)NC(=O)[C@H](CO)NC(=O)[C@H](CO)NC(=O)[C@H](Cc1c[nH]cn1)NC(=O)[C@@H](NC(=O)[C@H](CC(C)C)NC(=O)[C@H](Cc1ccccc1)NC(=O)[C@H](CC(N)=O)NC(=O)[C@H](C)NC(=O)[C@H](CC(C)C)NC(=O)[C@H](CCCNC(=N)N)NC(=O)[C@H](CCC(N)=O)NC(=O)[C@@H](NC(=O)[C@H](C)NC(=O)[C@@H]1CSSC[C@H](NC(=O)[C@@H](N)CCCCNC(=O)CC[C@H](NC(=O)CCCCCCCCCCCCCCCCC(=O)O)C(=O)O)C(=O)N[C@@H](CC(N)=O)C(=O)N[C@@H]([C@@H](C)O)C(=O)N[C@@H](C)C(=O)N[C@@H]([C@@H](C)O)C(=O)N1)[C@@H](C)O)C(C)C)C(=O)N[C@@H](CC(C)C)C(=O)N1CCC[C@H]1C(=O)N1CCC[C@H]1C(=O)N[C@H](C(=O)N[C@@H](CC(N)=O)C(=O)N[C@H](C(=O)NCC(=O)N[C@@H](CO)C(=O)N[C@@H](CCCNC(=N)N)C(=O)N[C@H](C(=O)N[C@@H](Cc1ccc(O)cc1)C(N)=O)[C@@H](C)O)C(C)C)[C@@H](C)O
B4: Peptide 66 (SEQ ID NO: 66) (peptide)
peptide: K([γGlu-γGlu-C18 diacid])KCNTATCATQRLANFLRHSS[Aib]NFGPILPPTNVGSNTY-NH2
modifications: disulfide 3-8; N-terminus assumed
SMILES: CC[C@H](C)[C@H](NC(=O)[C@@H]1CCCN1C(=O)CNC(=O)[C@H](Cc1ccccc1)NC(=O)[C@H](CC(N)=O)NC(=O)C(C)(C)NC(=O)[C@H](CO)NC(=O)[C@H](CO)NC(=O)[C@H](Cc1c[nH]cn1)NC(=O)[C@H](CCCNC(=N)N)NC(=O)[C@H](CC(C)C)NC(=O)[C@H](Cc1ccccc1)NC(=O)[C@H](CC(N)=O)NC(=O)[C@H](C)NC(=O)[C@H](CC(C)C)NC(=O)[C@H](CCCNC(=N)N)NC(=O)[C@H](CCC(N)=O)NC(=O)[C@@H](NC(=O)[C@H](C)NC(=O)[C@@H]1CSSC[C@H](NC(=O)[C@H](CCCCN)NC(=O)[C@@H](N)CCCCNC(=O)CC[C@H](NC(=O)CC[C@H](NC(=O)CCCCCCCCCCCCCCCCC(=O)O)C(=O)O)C(=O)O)C(=O)N[C@@H](CC(N)=O)C(=O)N[C@@H]([C@@H](C)O)C(=O)N[C@@H](C)C(=O)N[C@@H]([C@@H](C)O)C(=O)N1)[C@@H](C)O)C(=O)N[C@@H](CC(C)C)C(=O)N1CCC[C@H]1C(=O)N1CCC[C@H]1C(=O)N[C@H](C(=O)N[C@@H](CC(N)=O)C(=O)N[C@H](C(=O)NCC(=O)N[C@@H](CO)C(=O)N[C@@H](CC(N)=O)C(=O)N[C@H](C(=O)N[C@@H](Cc1ccc(O)cc1)C(N)=O)[C@@H](C)O)C(C)C)[C@@H](C)O
B5: Peptide 65 (SEQ ID NO: 65) (peptide)
peptide: K([γGlu-C18 diacid])KCNTATCATQRLANFLRHSS[Aib]NFGPILPPTNVGSNTY-NH2
modifications: disulfide 3-8; N-terminus assumed
SMILES: CC[C@H](C)[C@H](NC(=O)[C@@H]1CCCN1C(=O)CNC(=O)[C@H](Cc1ccccc1)NC(=O)[C@H](CC(N)=O)NC(=O)C(C)(C)NC(=O)[C@H](CO)NC(=O)[C@H](CO)NC(=O)[C@H](Cc1c[nH]cn1)NC(=O)[C@H](CCCNC(=N)N)NC(=O)[C@H](CC(C)C)NC(=O)[C@H](Cc1ccccc1)NC(=O)[C@H](CC(N)=O)NC(=O)[C@H](C)NC(=O)[C@H](CC(C)C)NC(=O)[C@H](CCCNC(=N)N)NC(=O)[C@H](CCC(N)=O)NC(=O)[C@@H](NC(=O)[C@H](C)NC(=O)[C@@H]1CSSC[C@H](NC(=O)[C@H](CCCCN)NC(=O)[C@@H](N)CCCCNC(=O)CC[C@H](NC(=O)CCCCCCCCCCCCCCCCC(=O)O)C(=O)O)C(=O)N[C@@H](CC(N)=O)C(=O)N[C@@H]([C@@H](C)O)C(=O)N[C@@H](C)C(=O)N[C@@H]([C@@H](C)O)C(=O)N1)[C@@H](C)O)C(=O)N[C@@H](CC(C)C)C(=O)N1CCC[C@H]1C(=O)N1CCC[C@H]1C(=O)N[C@H](C(=O)N[C@@H](CC(N)=O)C(=O)N[C@H](C(=O)NCC(=O)N[C@@H](CO)C(=O)N[C@@H](CC(N)=O)C(=O)N[C@H](C(=O)N[C@@H](Cc1ccc(O)cc1)C(N)=O)[C@@H](C)O)C(C)C)[C@@H](C)O
B6: Peptide 62 (SEQ ID NO: 62) (peptide)
peptide: K([γGlu-C18 diacid])CNTATCATQRLANF[dL]VHSS[Aib]NFGPILPPTNVGSNTY-NH2
modifications: disulfide 2-7; N-terminus assumed
SMILES: CC[C@H](C)[C@H](NC(=O)[C@@H]1CCCN1C(=O)CNC(=O)[C@H](Cc1ccccc1)NC(=O)[C@H](CC(N)=O)NC(=O)C(C)(C)NC(=O)[C@H](CO)NC(=O)[C@H](CO)NC(=O)[C@H](Cc1c[nH]cn1)NC(=O)[C@@H](NC(=O)[C@@H](CC(C)C)NC(=O)[C@H](Cc1ccccc1)NC(=O)[C@H](CC(N)=O)NC(=O)[C@H](C)NC(=O)[C@H](CC(C)C)NC(=O)[C@H](CCCNC(=N)N)NC(=O)[C@H](CCC(N)=O)NC(=O)[C@@H](NC(=O)[C@H](C)NC(=O)[C@@H]1CSSC[C@H](NC(=O)[C@@H](N)CCCCNC(=O)CC[C@H](NC(=O)CCCCCCCCCCCCCCCCC(=O)O)C(=O)O)C(=O)N[C@@H](CC(N)=O)C(=O)N[C@@H]([C@@H](C)O)C(=O)N[C@@H](C)C(=O)N[C@@H]([C@@H](C)O)C(=O)N1)[C@@H](C)O)C(C)C)C(=O)N[C@@H](CC(C)C)C(=O)N1CCC[C@H]1C(=O)N1CCC[C@H]1C(=O)N[C@H](C(=O)N[C@@H](CC(N)=O)C(=O)N[C@H](C(=O)NCC(=O)N[C@@H](CO)C(=O)N[C@@H](CC(N)=O)C(=O)N[C@H](C(=O)N[C@@H](Cc1ccc(O)cc1)C(N)=O)[C@@H](C)O)C(C)C)[C@@H](C)O

The target of the first test is T1, human amylin receptor (calcitonin …). The test can be described thus: cell-based or functional assay.
Regarding B1, the “EC50 (cAMP production)” value is 0.132 nM and the “Ratio (EC50 hCTR / EC50 hAMYR3)” value is 30.

As to B2, the “EC50 (cAMP production)” value was determined as 0.076 nM and the “Ratio (EC50 hCTR / EC50 hAMYR3)” value was 5.

On to B3, for which the “EC50 (cAMP production)” value is 0.149 nM and the “Ratio (EC50 hCTR / EC50 hAMYR3)” value stood at 9.

Regarding B4, the “EC50 (cAMP production)” value turned out to be 0.418 nM and the “Ratio (EC50 hCTR / EC50 hAMYR3)” value was determined as 17.

As to B5, the “EC50 (cAMP production)” value was 0.207 nM and the “Ratio (EC50 hCTR / EC50 hAMYR3)” value came to 31.

Turning to B6, the “EC50 (cAMP production)” value stood at 0.167 nM and the “Ratio (EC50 hCTR / EC50 hAMYR3)” value was found to be 43.

Another test has as its target T2, human calcitonin receptor. The test can be described thus: cell-based or functional assay.
For the molecule B1, the “EC50 (cAMP production)” value was 4.01 nM.

Take B2: the “EC50 (cAMP production)” value turned out to be 0.375 nM.

As for B3, the “EC50 (cAMP production)” value worked out at 1.28 nM.

Take B4: the “EC50 (cAMP production)” value amounted to 7.01 nM.

B5: the “EC50 (cAMP production)” value worked out at 6.4 nM.

For B6, the “EC50 (cAMP production)” value was 7.25 nM.
